In FireProtDB (doi:10.1002/pro.100):

B1: Prolactin, P01236 (parent)
chain: MNIKGSPWKGSLLLLLVSNLLLCQSVAPLPICPGGAARCQVTLRDLFDRAVVLSHYIHNLSSEMFSEFDKRYTHGRGFITKAINSCHTSSLATPEDKEQAQQMNQKDFLSLIVSILRSWNEPLYHLVTEVRGMQEAPEAILSKAVEIEEQTKRLLEGMELIVSQVHPETKENEIYPVWSGLPSLQMADEESRLSAYYNLLHCLRRDSHKIDNYLKLLKCRIIHNNNC

Variants of: B1
Conditions: Homo sapiens, 25 °C, Urea, Fluorescence, Potassium phosphate 25 mM, NaCl 25 mM, reversible: Yes, structure 2Q98, whole UniProt chain shown

In the case of MNIKGSPWKGSLLLLLVSNLLLCQSVAPLPICPGGAARCQVTLRDLFDRAVVLSHYIHNLSSEMFSEFDKRYTHGRGFITKAINSCHTSSLATPEDKEQAQQMNQKDFLSLIVSILRSWNEPLYHLVTEVRGMQEAPEAILSKAVEIEEQTKRLLEGMELIVSQVAPETKENEIYPVWSGLPSLQMADEESRLSAYYNLLHCLRRDSHKIDNYLKLLKCRIIHNNNC [H166A], the “ddG of mutation (higher = less stable)” value (pH 5.8) is reported as -2.04 kcal/mol, the denaturant m value (pH 5.8) is reported as 1.08 kcal/mol/M and the “denaturant midpoint (higher = more stable)” value (“denaturant midpoint” for short) (pH 5.8) is reported as 5.87 M. The unfolding free energy (pH 5.8) was 6.34 kcal/mol, the “ddG of mutation (higher = less stable)” value (pH 7.8) was -0.58 kcal/mol and the denaturant m value (pH 7.8) was 1.38 kcal/mol/M. The “denaturant midpoint” value (pH 7.8) was 6.38 M and the unfolding free energy (pH 7.8) was 8.78 kcal/mol.

With MNIKGSPWKGSLLLLLVSNLLLCQSVAPLPICPGGAARCQVTLRDLFDRAVVLSHYIHNLSSEMFSEFDKRYTAGRGFITKAINSCHTSSLATPEDKEQAQQMNQKDFLSLIVSILRSWNEPLYHLVTEVRGMQEAPEAILSKAVEIEEQTKRLLEGMELIVSQVHPETKENEIYPVWSGLPSLQMADEESRLSAYYNLLHCLRRDSHKIDNYLKLLKCRIIHNNNC [H74A] the “ddG of mutation (higher = less stable)” value (pH 5.8) was 0.11 kcal/mol, the denaturant m value (pH 5.8) was 0.81 kcal/mol/M and the “denaturant midpoint” value (pH 5.8) was 5.14 M. For the same variant, the unfolding free energy (pH 5.8) was 4.19 kcal/mol, the “ddG of mutation (higher = less stable)” value (pH 7.8) was -1.55 kcal/mol and the denaturant m value (pH 7.8) was 1.58 kcal/mol/M. The “denaturant midpoint” value (pH 7.8) was 6.19 M and the unfolding free energy (pH 7.8) was 9.75 kcal/mol.

In the case of MNIKGSPWKGSLLLLLVSNLLLCQSVAPLPICPGGAARCQVTLRDLFDRAVVLSAYIHNLSSEMFSEFDKRYTHGRGFITKAINSCHTSSLATPEDKEQAQQMNQKDFLSLIVSILRSWNEPLYHLVTEVRGMQEAPEAILSKAVEIEEQTKRLLEGMELIVSQVHPETKENEIYPVWSGLPSLQMADEESRLSAYYNLLHCLRRDSAKIDNYLKLLKCRIIHNNNC [H55A H208A], the “ddG of mutation (higher = less stable)” value (pH 5.8) is reported as -2.06 kcal/mol, the denaturant m value (pH 5.8) is reported as 1.05 kcal/mol/M and the “denaturant midpoint” value (pH 5.8) is reported as 6.08 M. For the same variant, the unfolding free energy (pH 5.8) was 6.36 kcal/mol, the “ddG of mutation (higher = less stable)” value (pH 7.8) was -2.57 kcal/mol and the denaturant m value (pH 7.8) was 1.62 kcal/mol/M. For the same variant, the “denaturant midpoint” value (pH 7.8) was 6.64 M and the unfolding free energy (pH 7.8) was 10.8 kcal/mol.

For MNIKGSPWKGSLLLLLVSNLLLCQSVAPLPICPGGAARCQVTLRDLFDRAVVLSAYIANLSSEMFSEFDKRYTHGRGFITKAINSCHTSSLATPEDKEQAQQMNQKDFLSLIVSILRSWNEPLYHLVTEVRGMQEAPEAILSKAVEIEEQTKRLLEGMELIVSQVHPETKENEIYPVWSGLPSLQMADEESRLSAYYNLLHCLRRDSAKIDNYLKLLKCRIIHNNNC [H55A H58A H208A], the “ddG of mutation (higher = less stable)” value (pH 5.8) was -3.41 kcal/mol, the denaturant m value (pH 5.8) was 1.16 kcal/mol/M and the “denaturant midpoint” value (pH 5.8) was 6.67 M. The unfolding free energy (pH 5.8) was 7.71 kcal/mol, the “ddG of mutation (higher = less stable)” value (pH 7.8) was -3.11 kcal/mol and the denaturant m value (pH 7.8) was 1.59 kcal/mol/M. For the same variant, the “denaturant midpoint” value (pH 7.8) was 7.1 M and the unfolding free energy (pH 7.8) was 11.3 kcal/mol.

With MNIKGSPWKGSLLLLLVSNLLLCQSVAPLPICPGGAARCQVTLRDLFDRAVVLSHYIHNLSSEMFSEFDKRYTHGRGFITKAINSCHTSSLATPEDKEQAQQMNQKDFLSLIVSILRSWNEPLYHLVTEVRGMQEAPEAILSKAVEIEEQTKRLLEGMELIVSQVHPETKENEIYPVWSGLPSLQMADEESRLSAYYNLLACLRRDSHKIDNYLKLLKCRIIHNNNC [H201A] the “ddG of mutation (higher = less stable)” value (pH 5.8) was -0.24 kcal/mol, the denaturant m value (pH 5.8) was 0.76 kcal/mol/M and the “denaturant midpoint” value (pH 5.8) was 5.98 M. For the same variant, the unfolding free energy (pH 5.8) was 4.54 kcal/mol, the “ddG of mutation (higher = less stable)” value (pH 7.8) was 0.35 kcal/mol and the denaturant m value (pH 7.8) was 1.26 kcal/mol/M. For the same variant, the “denaturant midpoint” value (pH 7.8) was 6.22 M and the unfolding free energy (pH 7.8) was 7.85 kcal/mol.

For MNIKGSPWKGSLLLLLVSNLLLCQSVAPLPICPGGAARCQVTLRDLFDRAVVLSHYIANLSSEMFSEFDKRYTHGRGFITKAINSCHTSSLATPEDKEQAQQMNQKDFLSLIVSILRSWNEPLYHLVTEVRGMQEAPEAILSKAVEIEEQTKRLLEGMELIVSQVHPETKENEIYPVWSGLPSLQMADEESRLSAYYNLLACLRRDSHKIDNYLKLLKCRIIHNNNC [H58A H201A], the “ddG of mutation (higher = less stable)” value (pH 5.8) was -3.7 kcal/mol, the denaturant m value (pH 5.8) was 1.19 kcal/mol/M and the “denaturant midpoint” value (pH 5.8) was 6.7 M. For the same variant, the unfolding free energy (pH 5.8) was 8 kcal/mol, the “ddG of mutation (higher = less stable)” value (pH 7.8) was -1.53 kcal/mol and the denaturant m value (pH 7.8) was 1.49 kcal/mol/M. For the same variant, the “denaturant midpoint” value (pH 7.8) was 6.53 M and the unfolding free energy (pH 7.8) was 9.73 kcal/mol.

In the case of MNIKGSPWKGSLLLLLVSNLLLCQSVAPLPICPGGAARCQVTLRDLFDRAVVLSHYIANLSSEMFSEFDKRYTHGRGFITKAINSCHTSSLATPEDKEQAQQMNQKDFLSLIVSILRSWNEPLYHLVTEVRGMQEAPEAILSKAVEIEEQTKRLLEGMELIVSQVHPETKENEIYPVWSGLPSLQMADEESRLSAYYNLLACLRRDSAKIDNYLKLLKCRIIHNNNC [H58A H201A H208A], the “ddG of mutation (higher = less stable)” value (pH 5.8) is reported as -3.98 kcal/mol, the denaturant m value (pH 5.8) is reported as 1.22 kcal/mol/M and the “denaturant midpoint” value (pH 5.8) is reported as 6.81 M. For the same variant, the unfolding free energy (pH 5.8) was 8.28 kcal/mol, the “ddG of mutation (higher = less stable)” value (pH 7.8) was -0.87 kcal/mol and the denaturant m value (pH 7.8) was 1.31 kcal/mol/M. The “denaturant midpoint” value (pH 7.8) was 6.94 M and the unfolding free energy (pH 7.8) was 9.07 kcal/mol.

In the case of MNIKGSPWKGSLLLLLVSNLLLCQSVAPLPICPGGAARCQVTLRDLFDRAVVLSHYIHNLSSEMFSEFDKRYTHGRGFITKAINSCATSSLATPEDKEQAQQMNQKDFLSLIVSILRSWNEPLYHLVTEVRGMQEAPEAILSKAVEIEEQTKRLLEGMELIVSQVHPETKENEIYPVWSGLPSLQMADEESRLSAYYNLLHCLRRDSHKIDNYLKLLKCRIIHNNNC [H87A], the “ddG of mutation (higher = less stable)” value (pH 5.8) is reported as -2.26 kcal/mol, the denaturant m value (pH 5.8) is reported as 1.13 kcal/mol/M and the “denaturant midpoint” value (pH 5.8) is reported as 5.81 M. For the same variant, the unfolding free energy (pH 5.8) was 6.56 kcal/mol, the “ddG of mutation (higher = less stable)” value (pH 7.8) was 0.02 kcal/mol and the denaturant m value (pH 7.8) was 1.35 kcal/mol/M. The “denaturant midpoint” value (pH 7.8) was 6.08 M and the unfolding free energy (pH 7.8) was 8.18 kcal/mol.

For MNIKGSPWKGSLLLLLVSNLLLCQSVAPLPICPGGAARCQVTLRDLFDRAVVLSAYIHNLSSEMFSEFDKRYTHGRGFITKAINSCHTSSLATPEDKEQAQQMNQKDFLSLIVSILRSWNEPLYHLVTEVRGMQEAPEAILSKAVEIEEQTKRLLEGMELIVSQVHPETKENEIYPVWSGLPSLQMADEESRLSAYYNLLHCLRRDSHKIDNYLKLLKCRIIHNNNC [H55A], the “ddG of mutation (higher = less stable)” value (pH 5.8) was -0.09 kcal/mol, the denaturant m value (pH 5.8) was 0.77 kcal/mol/M and the “denaturant midpoint” value (pH 5.8) was 5.71 M. It also gave an unfolding free energy (pH 5.8) of 4.39 kcal/mol.

For MNIKGSPWKGSLLLLLVSNLLLCQSVAPLPICPGGAARCQVTLRDLFDRAVVLSHYIHNLSSEMFSEFDKRYTHGRGFITKAINSCHTSSLATPEDKEQAQQMNQKDFLSLIVSILRSWNEPLYALVTEVRGMQEAPEAILSKAVEIEEQTKRLLEGMELIVSQVHPETKENEIYPVWSGLPSLQMADEESRLSAYYNLLHCLRRDSHKIDNYLKLLKCRIIHNNNC [H125A], the “ddG of mutation (higher = less stable)” value (pH 5.8) was -1.07 kcal/mol, the denaturant m value (pH 5.8) was 0.94 kcal/mol/M and the “denaturant midpoint” value (pH 5.8) was 5.72 M. The unfolding free energy (pH 5.8) was 5.37 kcal/mol, the “ddG of mutation (higher = less stable)” value (pH 7.8) was -0.33 kcal/mol and the denaturant m value (pH 7.8) was 1.4 kcal/mol/M. The “denaturant midpoint” value (pH 7.8) was 6.1 M and the unfolding free energy (pH 7.8) was 8.53 kcal/mol.

In the case of MNIKGSPWKGSLLLLLVSNLLLCQSVAPLPICPGGAARCQVTLRDLFDRAVVLSHYIHNLSSEMFSEFDKRYTHGRGFITKAINSCHTSSLATPEDKEQAQQMNQKDFLSLIVSILRSWNEPLYHLVTEVRGMQEAPEAILSKAVEIEEQTKRLLEGMELIVSQVHPETKENEIYPVWSGLPSLQMADEESRLSAYYNLLACLRRDSAKIDNYLKLLKCRIIHNNNC [H201A H208A], the “ddG of mutation (higher = less stable)” value (pH 5.8) is reported as -1.71 kcal/mol, the denaturant m value (pH 5.8) is reported as 0.93 kcal/mol/M and the “denaturant midpoint” value (pH 5.8) is reported as 6.49 M. The unfolding free energy (pH 5.8) was 6.01 kcal/mol, the “ddG of mutation (higher = less stable)” value (pH 7.8) was 0.41 kcal/mol and the denaturant m value (pH 7.8) was 1.17 kcal/mol/M. The “denaturant midpoint” value (pH 7.8) was 6.66 M and the unfolding free energy (pH 7.8) was 7.79 kcal/mol.

With MNIKGSPWKGSLLLLLVSNLLLCQSVAPLPICPGGAARCQVTLRDLFDRAVVLSHYIANLSSEMFSEFDKRYTHGRGFITKAINSCHTSSLATPEDKEQAQQMNQKDFLSLIVSILRSWNEPLYHLVTEVRGMQEAPEAILSKAVEIEEQTKRLLEGMELIVSQVHPETKENEIYPVWSGLPSLQMADEESRLSAYYNLLHCLRRDSHKIDNYLKLLKCRIIHNNNC [H58A] the “ddG of mutation (higher = less stable)” value (pH 5.8) was -3.1 kcal/mol, the denaturant m value (pH 5.8) was 1.2 kcal/mol/M and the “denaturant midpoint” value (pH 5.8) was 6.18 M. For the same variant, the unfolding free energy (pH 5.8) was 7.4 kcal/mol, the “ddG of mutation (higher = less stable)” value (pH 7.8) was -2.05 kcal/mol and the denaturant m value (pH 7.8) was 1.51 kcal/mol/M. The “denaturant midpoint” value (pH 7.8) was 6.79 M and the unfolding free energy (pH 7.8) was 10.2 kcal/mol.

With MNIKGSPWKGSLLLLLVSNLLLCQSVAPLPICPGGAARCQVTLRDLFDRAVVLSHYIANLSSEMFSEFDKRYTHGRGFITKAINSCHTSSLATPEDKEQAQQMNQKDFLSLIVSILRSWNEPLYHLVTEVRGMQEAPEAILSKAVEIEEQTKRLLEGMELIVSQVHPETKENEIYPVWSGLPSLQMADEESRLSAYYNLLHCLRRDSAKIDNYLKLLKCRIIHNNNC [H58A H208A] the “ddG of mutation (higher = less stable)” value (pH 5.8) was -3.06 kcal/mol, the denaturant m value (pH 5.8) was 1.17 kcal/mol/M and the “denaturant midpoint” value (pH 5.8) was 6.31 M. For the same variant, the unfolding free energy (pH 5.8) was 7.36 kcal/mol.
